Measurements reported in US20140274782A1, “AFFINITY REAGENTS AND METHODS FOR DETECTION, PURIFICATION, AND PROTEOMIC ANALYSIS OF METHYLATED PROTEINS” (The Board of Trustees of the Leland Stanford Junior …, priority 2013, published 2014).
Each block holds one molecule with its values, some of them ahead of it.

How the values were obtained:
[1] = system: 3×MBT domain of L3MBTL1; assay: Triple SILAC pull-down, 3xMBT/3xMBTD355N ratio (cytoplasmic, nuclear and chromatin fractions of 293T cells); assay type: binding, human; settings: for 3xMBT/D355N UNC Heavy: experiment with UNC0638 in heavy SILAC media; for 3xMBT/D355N UNC Light: experiment with UNC0638 in light SILAC media;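 on all read-outs here: proteins quantified with MaxQuant, requiring at least two unique peptides and quantification in both label directions, normalized to the mean of proteins from a digested loading control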
[2] = molecular target: T1, G9a and GLP (Homo sapiens, UniProt Q96KQ7+Q9H9B1); assay: Triple SILAC pull-down after UNC0638 treatment of 293T cells, DMSO/UNC0638 ratio of protein captured by 3×MBT; assay type: cell-based; parameters: endogenous in cells; host or cells: HEK 293T; settings: for Relative to UNC0638 UNC Heavy: UNC0638 in heavy SILAC media; for Relative to UNC0638 UNC Light: UNC0638 in light SILAC media; for Relative to UNC0638 Average: average of UNC Light and UNC Heavy experiments; for Candidate G9a/GLP target: reduced association with 3xMBT after UNC0638 treatment;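 on all read-outs here: mass spectrometry (Q-Exactive) SILAC quantitation, DMSO/UNC0638 ratio computed after subtracting 3×MBTD355N mutant pull-down background, only proteins with at least twofold 3×MBT over mutant signal considered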
T1 sequence (Q96KQ7 2-1210 limits assumed): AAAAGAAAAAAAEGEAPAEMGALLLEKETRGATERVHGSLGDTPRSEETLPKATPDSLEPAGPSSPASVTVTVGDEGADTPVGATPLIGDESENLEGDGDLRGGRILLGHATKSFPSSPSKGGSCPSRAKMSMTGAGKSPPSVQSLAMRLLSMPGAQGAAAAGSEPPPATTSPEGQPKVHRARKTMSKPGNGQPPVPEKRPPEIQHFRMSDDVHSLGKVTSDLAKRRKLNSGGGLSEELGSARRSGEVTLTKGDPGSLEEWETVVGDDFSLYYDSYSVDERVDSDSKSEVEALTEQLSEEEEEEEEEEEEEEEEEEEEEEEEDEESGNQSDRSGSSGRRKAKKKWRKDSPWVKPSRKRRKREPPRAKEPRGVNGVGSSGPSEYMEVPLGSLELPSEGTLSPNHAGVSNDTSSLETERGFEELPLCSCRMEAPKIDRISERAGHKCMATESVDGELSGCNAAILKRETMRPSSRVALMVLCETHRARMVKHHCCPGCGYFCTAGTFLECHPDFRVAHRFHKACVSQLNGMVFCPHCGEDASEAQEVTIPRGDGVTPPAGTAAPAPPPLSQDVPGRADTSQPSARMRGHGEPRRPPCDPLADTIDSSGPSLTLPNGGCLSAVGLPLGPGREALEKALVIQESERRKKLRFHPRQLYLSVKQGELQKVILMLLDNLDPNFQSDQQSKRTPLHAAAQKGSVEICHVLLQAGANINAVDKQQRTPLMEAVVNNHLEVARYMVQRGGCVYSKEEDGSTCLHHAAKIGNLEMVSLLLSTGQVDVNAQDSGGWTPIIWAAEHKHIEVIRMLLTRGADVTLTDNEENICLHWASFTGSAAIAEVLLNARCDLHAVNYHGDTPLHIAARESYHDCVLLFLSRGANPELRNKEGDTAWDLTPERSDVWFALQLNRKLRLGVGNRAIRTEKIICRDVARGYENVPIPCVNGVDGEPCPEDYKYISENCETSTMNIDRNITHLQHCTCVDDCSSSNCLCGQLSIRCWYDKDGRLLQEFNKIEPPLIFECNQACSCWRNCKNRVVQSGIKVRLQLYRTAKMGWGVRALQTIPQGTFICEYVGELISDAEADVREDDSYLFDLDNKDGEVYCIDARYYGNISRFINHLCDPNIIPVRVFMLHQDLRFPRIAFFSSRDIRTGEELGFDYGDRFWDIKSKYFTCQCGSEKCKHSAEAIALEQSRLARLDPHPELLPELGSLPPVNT
T1 sequence (Q9H9B1 2-1298 limits assumed): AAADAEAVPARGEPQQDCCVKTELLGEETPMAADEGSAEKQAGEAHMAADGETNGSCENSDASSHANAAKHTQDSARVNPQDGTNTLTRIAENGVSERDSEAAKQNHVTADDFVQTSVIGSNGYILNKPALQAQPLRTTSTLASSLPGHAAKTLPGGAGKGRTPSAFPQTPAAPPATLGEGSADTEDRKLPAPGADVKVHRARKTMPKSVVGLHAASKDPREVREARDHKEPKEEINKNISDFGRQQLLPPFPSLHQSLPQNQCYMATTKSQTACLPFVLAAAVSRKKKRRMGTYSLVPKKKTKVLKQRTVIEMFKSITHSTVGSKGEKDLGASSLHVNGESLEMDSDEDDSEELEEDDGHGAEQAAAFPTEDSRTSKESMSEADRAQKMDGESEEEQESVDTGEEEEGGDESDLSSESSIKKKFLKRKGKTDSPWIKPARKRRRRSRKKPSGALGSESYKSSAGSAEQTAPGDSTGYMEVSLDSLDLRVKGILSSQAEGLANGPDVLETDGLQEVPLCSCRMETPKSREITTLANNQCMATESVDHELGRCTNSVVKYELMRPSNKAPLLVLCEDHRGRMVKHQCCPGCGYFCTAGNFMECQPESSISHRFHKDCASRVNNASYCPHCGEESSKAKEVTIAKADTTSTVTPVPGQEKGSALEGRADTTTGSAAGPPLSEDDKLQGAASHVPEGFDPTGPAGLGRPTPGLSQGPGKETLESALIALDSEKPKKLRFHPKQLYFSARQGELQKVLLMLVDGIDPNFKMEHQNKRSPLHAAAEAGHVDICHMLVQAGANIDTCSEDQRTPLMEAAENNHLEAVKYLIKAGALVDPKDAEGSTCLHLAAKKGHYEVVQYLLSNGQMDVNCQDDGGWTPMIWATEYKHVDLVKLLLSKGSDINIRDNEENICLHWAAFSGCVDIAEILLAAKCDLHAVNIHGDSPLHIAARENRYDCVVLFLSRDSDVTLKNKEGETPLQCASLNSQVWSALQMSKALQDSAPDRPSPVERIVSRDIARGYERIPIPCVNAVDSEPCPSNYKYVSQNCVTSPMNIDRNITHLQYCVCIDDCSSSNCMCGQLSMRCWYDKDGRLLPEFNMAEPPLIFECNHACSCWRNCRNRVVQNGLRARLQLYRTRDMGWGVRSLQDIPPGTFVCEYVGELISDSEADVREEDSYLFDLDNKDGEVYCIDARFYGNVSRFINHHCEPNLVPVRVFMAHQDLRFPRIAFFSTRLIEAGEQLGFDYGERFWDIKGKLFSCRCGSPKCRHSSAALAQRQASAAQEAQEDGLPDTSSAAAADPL

[3] = SILAC ratio, pull-down 3xMBT vs 3xMBTD355N
[4] = SILAC ratio DMSO/UNC0638 of protein pulled down with 3xMBT
[5] = SILAC ratio 3xMBT vs 3xMBTD355N pull-down, 293T cells, all values in log base 2
[6] = SILAC ratio DMSO relative to UNC0638, pull-down with 3xMBT, all values in log base 2

Relative to UNC0638 UNC Heavy [2, 4]: 0.36 log base 2
Relative to UNC0638 UNC Light [2, 4]: 0.41 log base 2
Relative to UNC0638 Average [2]: 0.38 log base 2
Candidate G9a/GLP target [2]: ✓
B1: HNRNPL (protein, UniProt P14866 1-589, looked up)
Heterogeneous nuclear …: MSRRLLPRAEKRRRRLEQRQQPDEQRRRSGAMVKMAAAGGGGGGGRYYGGGSEGGRAPKRLKTDNAGDQHGGGGGGGGGAGAAGGGGGGENYDDPHKTPASPVVHIRGLIDGVVEADLVEALQEFGPISYVVVMPKKRQALVEFEDVLGACNAVNYAADNQIYIAGHPAFVNYSTSQKISRPGDSDDSRSVNSVLLFTILNPIYSITTDVLYTICNPCGPVQRIVIFRKNGVQAMVEFDSVQSAQRAKASLNGADIYSGCCTLKIEYAKPTRLNVFKNDQDTWDYTNPNLSGQGDPGSNPNKRQRQPPLLGDHPAEYGGPHGGYHSHYHDEGYGPPPPHYEGRRMGPPVGGHRRGPSRYGPQYGHPPPPPPPPEYGPHADSPVLMVYGLDQSKMNCDRVFNVFCLYGNVEKVKFMKSKPGAAMVEMADGYAVDRAITHLNNNFMFGQKLNVCVSKQPAIMPGQSYGLEDGSCSYKDFSESRNNRFSTPEQAAKNRIQHPSNVLHFFNAPLEVTEENFFEICDELGVKRPSSVKVFSGKSERSSSGLLEWESKSDALETLGFLNHYQMKNPNGPYPYTLKLCFSTAQHAS
3xMBT/D355N UNC Heavy [1, 3]: 1.15 log base 2
3xMBT/D355N UNC Light [1, 3]: 1.40 log base 2

Relative to UNC0638 UNC Heavy [2, 4]: 0.53 log base 2
Relative to UNC0638 UNC Light [2, 4]: 0.33 log base 2
Relative to UNC0638 Average [2]: 0.43 log base 2
Candidate G9a/GLP target [2]: ✓
B4: DDX46 (protein, UniProt Q7L014 2-1031, looked up)
Probable ATP-dependent RNA …: GRESRHYRKRSASRGRSGSRSRSRSPSDKRSKRGDDRRSRSRDRDRRRERSRSRDKRRSRSRDRKRLRRSRSRERDRSRERRRSRSRDRRRSRSRSRGRRSRSSSPGNKSKKTENRSRSKEKTDGGESSKEKKKDKDDKEDEKEKDAGNFDQNKLEEEMRKRKERVEKWREEQRKKAMENIGELKKEIEEMKQGKKWSLEDDDDDEDDPAEAEKEGNEMEGEELDPLDAYMEEVKEEVKKFNMRSVKGGGGNEKKSGPTVTKVVTVVTTKKAVVDSDKKKGELMENDQDAMEYSSEEEEVDLQTALTGYQTKQRKLLEPVDHGKIEYEPFRKNFYVEVPELAKMSQEEVNVFRLEMEGITVKGKGCPKPIKSWVQCGISMKILNSLKKHGYEKPTPIQTQAIPAIMSGRDLIGIAKTGSGKTIAFLLPMFRHIMDQRSLEEGEGPIAVIMTPTRELALQITKECKKFSKTLGLRVVCVYGGTGISEQIAELKRGAEIIVCTPGRMIDMLAANSGRVTNLRRVTYVVLDEADRMFDMGFEPQVMRIVDNVRPDRQTVMFSATFPRAMEALARRILSKPIEVQVGGRSVVCSDVEQQVIVIEEEKKFLKLLELLGHYQESGSVIIFVDKQEHADGLLKDLMRASYPCMSLHGGIDQYDRDSIINDFKNGTCKLLVATSVAARGLDVKHLILVVNYSCPNHYEDYVHRAGRTGRAGNKGYAYTFITEDQARYAGDIIKALELSGTAVPPDLEKLWSDFKDQQKAEGKIIKKSSGFSGKGFKFDETEQALANERKKLQKAALGLQDSDDEDAAVDIDEQIESMFNSKKRVKDMAAPGTSSVPAPTAGNAEKLEIAKRLALRINAQKNLGIESQDVMQQATNAILRGGTILAPTVSAKTIAEQLAEKINAKLNYVPLEKQEEERQDGGQNESFKRYEEELEINDFPQTARWKVTSKEALQRISEYSEAAITIRGTYFPPGKEPKEGERKIYLAIESANELAVQKAKAEITRLIKEELIRLQNSYQPTNKGRYKVL
3xMBT/D355N UNC Heavy [1, 3]: 2.10 log base 2
3xMBT/D355N UNC Light [1, 3]: 2.67 log base 2

Further lines, the molecule ahead of its results:

B2: CHEK1 (protein, UniProt O14757 1-476, looked up)
Serine/threonine-protein …: MAVPFVEDWDLVQTLGEGAYGEVQLAVNRVTEEAVAVKIVDMKRAVDCPENIKKEICINKMLNHENVVKFYGHRREGNIQYLFLEYCSGGELFDRIEPDIGMPEPDAQRFFHQLMAGVVYLHGIGITHRDIKPENLLLDERDNLKISDFGLATVFRYNNRERLLNKMCGTLPYVAPELLKRREFHAEPVDVWSCGIVLTAMLAGELPWDQPSDSCQEYSDWKEKKTYLNPWKKIDSAPLALLHKILVENPSARITIPDIKKDRWYNKPLKKGAKRPRVTSGGVSESPSGFSKHIQSNLDFSPVNSASSEENVKYSSSQPEPRTGLSLWDTSPSYIDKLVQGISFSQPTCPDHMLLNSQLLGTPGSSQNPWQRLVKRMTRFFTKLDADKSYQCLKETCEKLGYQWKKSCMNQVTISTTDRRNNKLIFKVNLLEMDDKILVDFRLSKGDGLEFKRHFLKIKGKLIDIVSSQKIWLPAT
3xMBT/D355N UNC Heavy [1, 5]: 0.09 log base 2
3xMBT/D355N UNC Light [1, 5]: 0.46 log base 2
Relative to UNC0638 UNC Light [2, 6]: −0.99 log base 2
Relative to UNC0638 Average ([2]; all values in log base 2): −0.99 log base 2

B3: CSRP2 (protein, UniProt Q16527 1-193, looked up)
Cysteine and glycine-rich …: MPVWGGGNKCGACGRTVYHAEEVQCDGRSFHRCCFLCMVCRKNLDSTTVAIHDEEIYCKSCYGKKYGPKGYGYGQGAGTLNMDRGERLGIKPESVQPHRPTTNPNTSKFAQKYGGAEKCSRCGDSVYAAEKIIGAGKPWHKNCFRCAKCGKSLESTTLTEKEGEIYCKGCYAKNFGPKGFGYGQGAGALVHAQ
3xMBT/D355N UNC Heavy [1, 5]: 1.27 log base 2
3xMBT/D355N UNC Light [1, 5]: 1.96 log base 2
Relative to UNC0638 UNC Heavy [2, 6]: −0.58 log base 2
Relative to UNC0638 UNC Light [2, 6]: −0.49 log base 2
Relative to UNC0638 Average ([2]; all values in log base 2): −0.54 log base 2
